The target in the assay is human S100A5 (hA5) (human) (UniProt P33763). Nature of the assay: ITC.
Sequence of UniProt P33763 (P33763 whole entry): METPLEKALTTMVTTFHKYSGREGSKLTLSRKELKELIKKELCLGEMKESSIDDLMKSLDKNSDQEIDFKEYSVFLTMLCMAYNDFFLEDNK

B1: α-1-syn peptide (fragment of human α-1-syntrophin) (peptide)
peptide: GAGGERWQRVLLSLAEDV
Turning to B1, the Kd stood at 4.8 µM and the dH (kcal · mol^−1) was -4.5.

As usually defined, the Kd is the constant that tells how readily two partners part at equilibrium. High values mean lower affinity, low ones higher affinity.

These data come from publication doi:10.1101/2020.06.02.131086.
